Source: the supplement of paper PMC10065799, “High-throughput profiling of sequence recognition by tyrosine kinases and SH2 domains using bacterial peptide display” (eLife, 2023)

What was measured:
[1] = molecular target: SHP2-C SH2; assay: SH2 binding enrichment of the phosphorylated peptide, bacterial display (enrichment ratio); higher = better substrate or ligand; peptides without Tyr show the background
[2] = molecular target: Grb2 SH2 (UniProt P62993); assay: as above
[3] = molecular target: c-Src SH2; assay: as above
[4] = molecular target: Fyn (UniProt P06241); assay: phosphorylation enrichment, bacterial display (enrichment ratio); higher = better substrate or ligand; peptides without Tyr show the background
[5] = test system: c-Abl (mouse); assay: as above
[6] = molecular target: Jak2 (UniProt O60674); assay: as above
[7] = molecular target: Fes (UniProt P07332); assay: as above
[8] = test system: c-Src; assay: as above
[9] = test system: Fer (mouse); assay: as above
[10] = molecular target: FGFR3 (UniProt P22607); assay: as above
[11] = molecular target: EPHB2 (UniProt P29323); assay: as above
[12] = molecular target: EPHB1 (UniProt P54762); assay: as above
[13] = molecular target: MERTK (UniProt Q12866); assay: as above
[14] = molecular target: FGFR1 (UniProt P11362); assay: as above
[15] = molecular target: Hck (UniProt P08631); assay: as above
[16] = test system: AncSZ; assay: as above
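Wherever SH2 binding enrichment of the phosphorylated peptide, bacterial display is given: peptide library displayed on the E. coli surface as eCPX fusions, selected cells deep-sequenced, score is each peptide's frequency after selection divided by its frequency in the input.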
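Wherever phosphorylation enrichment, bacterial display is given: 11-residue human phosphosite peptides and single-mutation variants displayed on the E. coli surface, counted by deep sequencing, each peptide's frequency after selection divided by its frequency in the unselected input library; frequency after pTyr selection over input frequency; kinase dosed for 20-30% of maximal phosphorylation in three min.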

Sequence of Fyn (P06241 whole entry, looked up): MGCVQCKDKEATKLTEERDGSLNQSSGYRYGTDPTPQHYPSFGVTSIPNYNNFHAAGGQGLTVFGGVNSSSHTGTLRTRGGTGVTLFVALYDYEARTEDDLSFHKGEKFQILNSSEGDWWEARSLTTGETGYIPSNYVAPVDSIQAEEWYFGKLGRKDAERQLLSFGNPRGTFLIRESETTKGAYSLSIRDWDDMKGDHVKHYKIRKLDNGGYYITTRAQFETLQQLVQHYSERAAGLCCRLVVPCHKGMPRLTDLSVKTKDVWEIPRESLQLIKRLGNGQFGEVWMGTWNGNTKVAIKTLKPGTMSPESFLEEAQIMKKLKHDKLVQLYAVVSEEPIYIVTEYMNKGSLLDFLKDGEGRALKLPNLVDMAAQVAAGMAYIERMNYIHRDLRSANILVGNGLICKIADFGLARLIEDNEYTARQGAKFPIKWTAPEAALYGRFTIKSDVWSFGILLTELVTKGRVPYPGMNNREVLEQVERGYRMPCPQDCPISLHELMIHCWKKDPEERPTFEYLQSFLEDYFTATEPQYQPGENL
Sequence of Hck (P08631 whole entry, looked up): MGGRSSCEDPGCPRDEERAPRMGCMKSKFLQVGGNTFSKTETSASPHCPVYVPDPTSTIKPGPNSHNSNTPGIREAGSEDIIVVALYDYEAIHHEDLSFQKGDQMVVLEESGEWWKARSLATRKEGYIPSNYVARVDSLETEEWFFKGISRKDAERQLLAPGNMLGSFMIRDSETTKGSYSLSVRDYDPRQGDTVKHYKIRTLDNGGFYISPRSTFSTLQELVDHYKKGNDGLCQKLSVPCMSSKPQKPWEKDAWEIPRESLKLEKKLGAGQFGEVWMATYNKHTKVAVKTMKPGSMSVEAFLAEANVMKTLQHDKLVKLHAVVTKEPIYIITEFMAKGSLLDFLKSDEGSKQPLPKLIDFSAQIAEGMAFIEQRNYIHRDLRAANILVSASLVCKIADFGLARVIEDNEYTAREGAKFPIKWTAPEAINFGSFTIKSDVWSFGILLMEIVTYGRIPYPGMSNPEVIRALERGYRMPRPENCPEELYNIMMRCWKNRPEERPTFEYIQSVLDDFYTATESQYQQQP
Sequence of Jak2 (O60674 whole entry, looked up): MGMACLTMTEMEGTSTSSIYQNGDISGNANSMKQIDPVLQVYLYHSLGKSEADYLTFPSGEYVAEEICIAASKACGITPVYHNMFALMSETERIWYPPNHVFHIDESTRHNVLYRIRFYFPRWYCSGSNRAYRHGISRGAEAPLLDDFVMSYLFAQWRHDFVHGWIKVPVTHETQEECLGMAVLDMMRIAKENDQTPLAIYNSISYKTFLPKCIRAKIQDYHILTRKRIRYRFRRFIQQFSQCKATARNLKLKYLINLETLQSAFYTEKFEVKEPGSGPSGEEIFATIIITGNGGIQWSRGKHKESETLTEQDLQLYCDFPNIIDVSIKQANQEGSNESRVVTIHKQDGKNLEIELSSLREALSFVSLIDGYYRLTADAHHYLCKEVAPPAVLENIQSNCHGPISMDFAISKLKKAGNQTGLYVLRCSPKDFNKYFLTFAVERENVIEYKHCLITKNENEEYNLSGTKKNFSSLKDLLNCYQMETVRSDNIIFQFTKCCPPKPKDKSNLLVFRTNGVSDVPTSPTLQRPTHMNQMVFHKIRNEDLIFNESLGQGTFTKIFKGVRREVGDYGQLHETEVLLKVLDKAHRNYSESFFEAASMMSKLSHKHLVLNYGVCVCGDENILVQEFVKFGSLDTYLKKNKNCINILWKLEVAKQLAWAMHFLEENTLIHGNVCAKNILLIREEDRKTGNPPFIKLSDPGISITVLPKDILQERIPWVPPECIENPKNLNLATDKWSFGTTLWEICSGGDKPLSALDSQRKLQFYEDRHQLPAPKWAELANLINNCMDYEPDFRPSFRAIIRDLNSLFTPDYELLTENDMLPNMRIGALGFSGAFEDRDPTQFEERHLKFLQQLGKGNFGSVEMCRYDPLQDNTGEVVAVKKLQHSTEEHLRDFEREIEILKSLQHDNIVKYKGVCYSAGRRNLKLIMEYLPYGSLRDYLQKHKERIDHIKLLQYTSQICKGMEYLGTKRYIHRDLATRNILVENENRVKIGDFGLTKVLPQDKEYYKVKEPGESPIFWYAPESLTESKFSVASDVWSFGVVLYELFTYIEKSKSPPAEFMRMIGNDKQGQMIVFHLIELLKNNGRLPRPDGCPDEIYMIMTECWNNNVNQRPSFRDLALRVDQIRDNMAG
Sequence of FGFR3 (P22607 whole entry, looked up): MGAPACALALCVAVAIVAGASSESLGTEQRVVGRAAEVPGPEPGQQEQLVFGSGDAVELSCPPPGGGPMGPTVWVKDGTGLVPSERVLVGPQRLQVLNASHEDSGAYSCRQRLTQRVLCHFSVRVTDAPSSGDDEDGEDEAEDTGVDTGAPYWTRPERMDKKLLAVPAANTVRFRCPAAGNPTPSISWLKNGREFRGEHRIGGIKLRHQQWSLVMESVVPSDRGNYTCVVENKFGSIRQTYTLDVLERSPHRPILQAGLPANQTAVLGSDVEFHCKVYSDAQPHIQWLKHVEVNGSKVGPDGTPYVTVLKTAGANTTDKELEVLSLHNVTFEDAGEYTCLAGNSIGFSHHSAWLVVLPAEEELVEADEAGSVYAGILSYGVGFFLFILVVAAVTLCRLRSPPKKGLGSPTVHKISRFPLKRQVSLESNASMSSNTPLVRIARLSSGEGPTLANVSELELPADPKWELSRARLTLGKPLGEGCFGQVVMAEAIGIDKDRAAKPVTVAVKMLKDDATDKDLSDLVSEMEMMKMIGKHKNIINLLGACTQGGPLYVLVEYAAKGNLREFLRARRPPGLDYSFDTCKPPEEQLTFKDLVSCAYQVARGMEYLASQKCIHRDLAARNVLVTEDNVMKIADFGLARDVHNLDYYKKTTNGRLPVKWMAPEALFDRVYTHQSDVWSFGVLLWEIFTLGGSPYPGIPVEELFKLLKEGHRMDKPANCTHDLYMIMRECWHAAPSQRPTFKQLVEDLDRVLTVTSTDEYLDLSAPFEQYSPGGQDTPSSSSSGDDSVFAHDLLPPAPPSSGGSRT
Sequence of Fes (P07332 whole entry, looked up): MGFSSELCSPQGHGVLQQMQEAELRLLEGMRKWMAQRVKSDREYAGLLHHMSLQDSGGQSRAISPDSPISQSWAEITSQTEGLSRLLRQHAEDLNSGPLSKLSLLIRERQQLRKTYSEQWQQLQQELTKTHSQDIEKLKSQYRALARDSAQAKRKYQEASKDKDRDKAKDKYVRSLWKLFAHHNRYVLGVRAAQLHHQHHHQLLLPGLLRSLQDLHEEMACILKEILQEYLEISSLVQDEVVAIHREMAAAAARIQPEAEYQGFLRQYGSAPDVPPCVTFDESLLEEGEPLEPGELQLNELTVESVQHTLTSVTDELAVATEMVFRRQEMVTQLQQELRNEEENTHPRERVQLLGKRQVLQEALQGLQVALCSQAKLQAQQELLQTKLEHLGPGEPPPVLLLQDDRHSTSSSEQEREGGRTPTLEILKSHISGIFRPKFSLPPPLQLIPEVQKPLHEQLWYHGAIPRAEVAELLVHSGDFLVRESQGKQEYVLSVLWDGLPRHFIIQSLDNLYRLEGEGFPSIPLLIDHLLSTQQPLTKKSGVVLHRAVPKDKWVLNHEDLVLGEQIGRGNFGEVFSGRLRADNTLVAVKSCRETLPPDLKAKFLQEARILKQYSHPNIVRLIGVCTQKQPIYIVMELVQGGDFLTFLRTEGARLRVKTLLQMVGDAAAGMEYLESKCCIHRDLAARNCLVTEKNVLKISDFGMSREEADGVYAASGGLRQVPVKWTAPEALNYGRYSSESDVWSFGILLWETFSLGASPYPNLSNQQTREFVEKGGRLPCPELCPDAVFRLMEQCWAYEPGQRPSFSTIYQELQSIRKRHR
Sequence of EPHB1 (P54762 whole entry, looked up): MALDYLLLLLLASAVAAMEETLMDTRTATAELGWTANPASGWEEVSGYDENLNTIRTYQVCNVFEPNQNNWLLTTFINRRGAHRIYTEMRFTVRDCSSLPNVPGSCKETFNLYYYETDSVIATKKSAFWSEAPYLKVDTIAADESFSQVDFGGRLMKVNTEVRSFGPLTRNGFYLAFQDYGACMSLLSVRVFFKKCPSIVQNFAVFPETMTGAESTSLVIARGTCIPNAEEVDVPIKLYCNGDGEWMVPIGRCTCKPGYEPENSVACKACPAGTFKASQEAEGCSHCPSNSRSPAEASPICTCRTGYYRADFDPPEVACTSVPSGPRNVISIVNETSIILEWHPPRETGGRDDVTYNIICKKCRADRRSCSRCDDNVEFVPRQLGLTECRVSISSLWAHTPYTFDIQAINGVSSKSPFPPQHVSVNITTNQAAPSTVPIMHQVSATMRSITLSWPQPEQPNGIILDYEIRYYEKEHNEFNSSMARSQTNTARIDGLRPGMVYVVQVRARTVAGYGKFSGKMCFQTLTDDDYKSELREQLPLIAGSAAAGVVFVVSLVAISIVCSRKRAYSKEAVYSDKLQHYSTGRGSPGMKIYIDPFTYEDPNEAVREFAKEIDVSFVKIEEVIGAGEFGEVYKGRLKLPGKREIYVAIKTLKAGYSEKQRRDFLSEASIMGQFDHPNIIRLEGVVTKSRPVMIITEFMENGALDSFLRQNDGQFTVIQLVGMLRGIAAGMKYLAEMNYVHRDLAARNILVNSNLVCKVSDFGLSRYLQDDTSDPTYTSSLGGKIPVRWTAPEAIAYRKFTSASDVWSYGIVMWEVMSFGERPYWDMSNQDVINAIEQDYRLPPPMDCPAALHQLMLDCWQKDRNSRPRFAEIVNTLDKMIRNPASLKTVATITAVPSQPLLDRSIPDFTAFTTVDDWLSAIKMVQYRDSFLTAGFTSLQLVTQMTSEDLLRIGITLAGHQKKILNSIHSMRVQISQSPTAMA

| SH2 binding enrichment [1] | SH2 binding enrichment [2] | SH2 binding enrichment [3] | Sequence | phosphorylation enrichment [4] | phosphorylation enrichment [5] | phosphorylation enrichment [6] | phosphorylation enrichment [7] | phosphorylation enrichment [8] | phosphorylation enrichment [9] | phosphorylation enrichment [10] | phosphorylation enrichment [11] | phosphorylation enrichment [12] | phosphorylation enrichment [13] | phosphorylation enrichment [14] | phosphorylation enrichment [15] | phosphorylation enrichment [16] |
| --- | --- | --- | --- | --- | --- | --- | --- | --- | --- | --- | --- | --- | --- | --- | --- | --- |
| 0.548 | 0.609 | 0.4 | QPGTDYKIFLF [FN1_Y1970_YF] | 0.591 | 1.4 | 1.72 | 2.44 | 0.674 | 0.899 | 1.21 | 0.848 | 1.05 | 0.673 | 1.17 | 0.924 | 2.09 |
| 1.04 | 1.14 | 4.04 | CTTSHYNFMCN [TP53_Y234_I232S_YF] | 0.484 | 0.613 | 0.884 | 0.967 | 0.48 | 0.552 | 0.637 | 0.533 | 0.516 | 0.455 | 0.509 | 0.446 | 0.911 |
| 0.732 | 0.766 | 0.613 | SHMVNYQPFRK [TEX37_Y25_D24N_YF] | 0.37 | 0.504 | 0.573 | 0.534 | 0.492 | 0.355 | 0.364 | 0.371 | 0.376 | 0.358 | 0.347 | 0.405 | 0.528 |
| 2.42 | 1.12 | 1.21 | KLLRLYAVVTR [LYN_Y306_V303L] | 0.451 | 0.918 | 1.05 | 1.04 | 0.544 | 0.51 | 0.644 | 0.594 | 0.982 | 0.581 | 0.409 | 0.468 | 0.997 |
| 0.847 | 1.1 | 0.646 | ARKCKYFKKHE [NFIX_Y40_R38C] | 0.463 | 0.75 | 0.596 | 0.974 | 0.545 | 0.443 | 0.565 | 0.403 | 0.452 | 0.486 | 0.428 | 0.48 | 0.619 |
| 0.955 | 0.699 | 0.42 | QDIMAYRSREV [BCL6_Y157_G159S] | 0.323 | 0.745 | 0.759 | 0.746 | 0.513 | 0.196 | 0.664 | 0.343 | 0.456 | 0.398 | 0.285 | 0.314 | 0.569 |
| 0.916 | 1.12 | 0.808 | AEPNIYQEKLS [USP54_Y1233_D1231N] | 0.727 | 0.802 | 0.948 | 0.748 | 0.679 | 0.34 | 0.505 | 0.462 | 0.401 | 0.339 | 0.442 | 0.778 | 0.763 |
| 0.804 | 0.956 | 1.42 | APSGNYVACGG [GNB1_Y111] | 0.363 | 0.584 | 0.571 | 0.788 | 0.301 | 0.513 | 1.07 | 0.691 | 0.822 | 0.437 | 0.478 | 0.429 | 1.13 |
| 1.51 | 1.25 | 0.654 | HFMELYDLNRD [BBS2_Y648_R643H_YF] | 1.38 | 0.943 | 1.28 | 1.18 | 4.64 | 0.784 | 0.723 | 0.594 | 0.625 | 0.563 | 0.497 | 1.48 | 1.1 |
| 0.633 | 0.867 | 0.641 | MFNPCYGLFEY [NEDD4L_Y680_Y679C] | 5.24 | 0.842 | 1.11 | 1.32 | 5.01 | 1.6 | 0.752 | 0.604 | 0.739 | 1.69 | 0.616 | 2.54 | 1.26 |
| 1.37 | 2.03 | 1.89 | IVGLLYRLLTE [SETX_Y1978] | 0.436 | 0.733 | 1.13 | 1.35 | 0.539 | 0.561 | 0.937 | 0.672 | 0.665 | 0.71 | 0.699 | 0.596 | 1.29 |
| 0.691 | 0.707 | 1.18 | RELGEYALAEY [ALDH1A3_Y492] | 0.614 | 1.67 | 1.81 | 2.76 | 1.14 | 0.74 | 0.714 | 0.785 | 0.858 | 0.55 | 0.694 | 0.765 | 1.44 |
| 0.674 | 0.824 | 0.807 | DVCKNYTEAKD [ALB_Y343_A344T] | 0.497 | 0.549 | 0.712 | 0.963 | 0.385 | 0.511 | 0.613 | 0.581 | 0.555 | 0.5 | 0.51 | 0.494 | 0.92 |
| 3.31 | 1.76 | 1.01 | TCRPPYYHRNC [HGD_Y333_F329C] | 0.093 | 0.197 | 0.162 | 0.713 | 0.251 | 0.233 | 0.493 | – | – | 0.235 | 0.398 | 0.218 | 0.243 |

| Sequence | SH2 binding enrichment [1] | SH2 binding enrichment [2] | SH2 binding enrichment [3] | phosphorylation enrichment [4] | phosphorylation enrichment [5] | phosphorylation enrichment [6] | phosphorylation enrichment [7] | phosphorylation enrichment [8] | phosphorylation enrichment [9] | phosphorylation enrichment [10] | phosphorylation enrichment [11] | phosphorylation enrichment [12] | phosphorylation enrichment [13] | phosphorylation enrichment [14] | phosphorylation enrichment [15] | phosphorylation enrichment [16] |
| --- | --- | --- | --- | --- | --- | --- | --- | --- | --- | --- | --- | --- | --- | --- | --- | --- |
| SIKDKYVTALC [KCNH2_Y611_Y616C] | 0.801 | 0.918 | 0.555 | 0.393 | 0.51 | 0.653 | 0.695 | 0.386 | 0.467 | 0.81 | 0.371 | 0.387 | 0.346 | 0.376 | 0.362 | 0.64 |
| DDEENYENVPR [FCRL3_Y722] | 0.9 | 1.04 | 0.699 | 0.555 | 0.786 | 1.11 | 1.19 | 0.428 | 0.57 | 0.773 | 0.572 | 0.619 | 0.45 | 0.567 | 0.589 | 1.3 |
